The EC50 is the midpoint of the concentration-response curve.

Here are results for one molecule from patent US20230322947A1 (published 2023).

This test deals with T1, cynomolgous CD3 on the cynomolgous T-cell line HSC-F (cynomolgus, UniProt Q95LI8 22-171; Q95LI7 23-181).
T1 chain: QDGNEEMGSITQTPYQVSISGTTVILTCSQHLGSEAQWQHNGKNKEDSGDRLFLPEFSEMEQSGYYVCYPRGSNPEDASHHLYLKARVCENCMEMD
In words: FACS binding. A general note: In flow cytometry, cells or beads pass a laser one at a time.

B1: bsIgG1 huCD3-H3L1×HER2-LFLEDA (bispecific antibody)
heavy 1: EVKLVESGGGLVKPGRSLRLSCAASGFTFNTYAMNWVRQAPGKGLEWVARIRSKYNNYATYYADSVKDRFTISRDDSKSILYLQMNSLKTEDTAMYYCVRHGNFGNSYVSWFAYWGQGTLVTVSS
VL 1: not shown
heavy 2: QVQLVQSGAEVKKPGASVKVSCKASGYTFTNYGISWVRQAPGQGLEWMGWLSAYSGNTIYAQKLQGRVTMTTDTSTTTAYMELRSLRSDDTAVYYCARDRIVVRPDYFDYWGQGTLVTVSS
VL 2: EIVLTQSPATLSLSPGERATLSCRASQSVSSYLAWYQQKPGQAPRLLIYDASNRATGIPARFSGSGSGTDFTLTISSLEPEDFAVYYCQQRSNWPRTFGQGTKVEIK
As for B1, the EC50 was determined as 3.54 µg/mL.
